This is an account of results in US20090180995A1, “NOVEL ANTICOAGULANT POLYPEPTIDES AND COMPLEX” (National University of Singapore, priority 2005, published 2009).

Broadly, the Ki is a measure of affinity in units of concentration, obtained from inhibition or displacement.

“Also recorded” adds a separate entry of the source.

One series has as its target T1, FVIIa-sTF (Homo sapiens, UniProt P08709).
T1 construct: made in house; host or cells: Saccharomyces cerevisiae (sTF); human plasma (FVIIa)
Put plainly: Kinetics of inhibition of FVIIa-sTF amidolytic activity on S-2288. The format is biochemical. As to the method: Determination of kinetic constants for substrate hydrolysis—All studies were in assay buffer containing 50 mM Tris-HCl, pH 8.0, containing 150 mM NaCl, 10 mM CaCl2, and 1% BSA at 37° C. The kinetics of hydrolysis of the chromogenic substrate S-2288 by FVIIa-sTF was measured prior to examining the inhibitory effects of individual hemextins and the hemextin AB complex. Reactions were initiated by the addition of S-2288 (0-5 mM) to the individual wells of a 96-well plate containing FVIIa (30 nM) in complex with sTF (100 nM) in a final volume of 180 μl. Initial reaction velocities were measured as a linear increase in the absorbance at 405 nm (A405 nm) over 5 min, with a SPECTRAmax Plus® temperature-controlled microplate spectrophotometer (Molecular Devices, Sunnyvale, Calif.). The Km was derived from the nonlinear regression fit of the determined velocities, the value of which was 2.79 mM.
Kinetics of inhibition—The inhibitory potency of anticoagulant complex was measured over a range of substrate concentrations. Reactions were initiated by the addition of S-2288 to premixed enzyme-cofactor and inhibitor in the wells of a microtiter plate. Reactions with FVIIa-sTF contained 0.0125-0.05 μM of inhibitor complex and 0 to 3 mM of S-2288.
V=Vmax [S]/(1+[I]Ki)/{Km+[S]} (Eq. 1)

The target of a further series is T2, FVIIa (Homo sapiens, UniProt P08709).
T2 construct: from tissue; host or cells: human plasma
T2 sequence (P08709 61-212 limits assumed): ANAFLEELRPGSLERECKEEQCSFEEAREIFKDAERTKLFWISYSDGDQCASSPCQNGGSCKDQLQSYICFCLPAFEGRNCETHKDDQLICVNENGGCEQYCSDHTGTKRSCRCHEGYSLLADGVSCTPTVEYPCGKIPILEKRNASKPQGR
T2 sequence (P08709 213-466 limits assumed): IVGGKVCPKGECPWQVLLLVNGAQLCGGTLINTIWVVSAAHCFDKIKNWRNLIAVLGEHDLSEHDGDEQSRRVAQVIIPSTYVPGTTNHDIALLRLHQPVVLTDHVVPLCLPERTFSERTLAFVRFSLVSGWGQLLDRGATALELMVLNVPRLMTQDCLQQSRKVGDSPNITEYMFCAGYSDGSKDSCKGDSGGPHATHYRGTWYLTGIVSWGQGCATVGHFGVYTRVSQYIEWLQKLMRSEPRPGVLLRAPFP
Nature of the series: ITC, binding of hemextin AB complex to FVIIa. The note with it: 37° C. As to the method:
Isothermal titration calorimetry (ITC) studies—The interaction of anticoagulant hemextin AB complex with FVIIa was monitored with a VP-ITC titration calorimetric system (Microcal Inc., Northampton, Mass.). The instrument was calibrated using the built-in electrical calibration check. FVIIa (10 μM) in 50 mM Tris-HCl buffer and 10 mM CaCl2 (pH 7.4) in the calorimetric cell was titrated with reconstituted anticoagulant complex (0.2 mM) dissolved in the same buffer in a 250 μl injection syringe, with continual stirring at 300 rpm at 37° C. All the protein solutions were filtered and degassed prior to titration. […] The total heat content Q of the solution (determined relative to zero for the unliganded species) contained in the active cell volume, Vo, was calculated according to the following Equation 2, where K is the binding affinity constant, n is the number of sites, ΔH is the enthalpy of ligand binding, Mt and Xt is the bulk concentration of macromolecule and ligand, respectively, for the binding X+M ? […]
The change in heat (ΔQ) measured between the completions of two consecutive injections is corrected for dilution of the protein and ligand in the cell according to standard Marquardt methods. The free energy change (AG) during the interaction was calculated by using the relationship: ΔG=ΔH−TΔS=[…], where T is the absolute temperature and R is the universal gas constant.
A general note: ITC needs no label: the signal is the heat of the interaction.

A short description of series [1]: Size exclusion chromatography of hemextin AB complex in different buffers. The format is physicochemical. The method, then:
Size exclusion chromatography (SEC) studies—All SEC experiments were carried out at room temperature on a pre-packed Superdex 75 gel filtration column (1.6×60 cm) using a ÄKTA Purifier system (Amersham Biosciences, Uppsala, Sweden). The column was eluted with 50 mM Tris-HCl buffer (pH 7.4) or the specified elution buffer, at a flow rate of 1 ml/min. The sample volume applied to the column was 4 ml. The column was calibrated using ovomucoid (28 kD) ribonuclease (15.6 KD), cytochrome C (12 KD), apoprotinin (7 KD) and pelovaterin (4 KD) (20) as molecular weight markers. The void volume was determined by running Blue Dextran. The column was equilibrated with at least two bed volumes of the elution buffer prior to each run. Electrostatic contributions in the hemextin AB complex formation were studied by monitoring its elution in 50 mM Tris-HCl buffer (pH 7.4) of different concentrations of NaCl (75 mM and 150 mM). Hydrophobic contributions for the complex formation were determined by recording its elution in 50 mM Tris-HCl buffer (pH 7.4). In both studies, the column was first equilibrated with the desired buffer prior to the application of the reconstituted hemextin AB complex in the respective buffer to the column. Elution of protein was monitored by absorbance at 280 nm.
In general terms: SEC sorts molecules by how far they enter the pores of the column.

T1 sequence (P13726 33-251 partner limits assumed, one chain of several): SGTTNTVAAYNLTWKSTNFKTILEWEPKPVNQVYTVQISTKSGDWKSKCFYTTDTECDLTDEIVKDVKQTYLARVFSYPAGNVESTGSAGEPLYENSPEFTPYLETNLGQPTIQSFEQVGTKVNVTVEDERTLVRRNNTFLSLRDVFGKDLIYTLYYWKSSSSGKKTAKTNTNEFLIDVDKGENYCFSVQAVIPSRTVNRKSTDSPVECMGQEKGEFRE

B1: hemextin AB complex: synergistic 1:1 tetrameric complex of hemextin A and hemextin B, reconstituted from equimolar proteins (protein)
chain 1: LKCKNKLVPFLSKTCPEGKNLCYKMTMLKMPKIPIKRGCTDACPKSSLLVKVVCCNKDKCN
chain 2: LKCKNKVVPFLKCKNKVVPFLCYKMTLKKVPKIPIKRGCTDACPKSSLLVNVMCCKTDKCN
As for B1, the “nature of inhibition of FVIIa-sTF activity” value with FVIIa-sTF (S-2288, Lineweaver-Burk plots) was “non-competitively; also recorded: non-competitive inhibitor”. The molecule also showed an inhibitory constant (Ki) with FVIIa-sTF (S-2288, secondary plot) of 25 nM. Besides, the figures for the Kcat in the series with FVIIa-sTF ([Inhibitor] 0.0125 μM), with FVIIa-sTF ([Inhibitor] 0.0250 μM) and with FVIIa-sTF ([Inhibitor] 0.05 μM) were 40.93 s⁻¹, 30.58 s⁻¹ and 20.87 s⁻¹, respectively. Besides, the Vmax came to 7.37E−05 in the series with FVIIa-sTF ([Inhibitor] 0.0125 μM), 5.51E−05 in the series with FVIIa-sTF ([Inhibitor] 0.0250 μM) and 3.75E−05 with FVIIa-sTF ([Inhibitor] 0.05 μM). Moreover, in the series with FVIIa, the “ΔG of binding to FVIIa” value was -7.543 kcal/M. Further, the “K for the binding to FVIIa” value with FVIIa (50 mM Tris-HCl, 10 mM CaCl2 (pH 7.4)) was 411000 M⁻¹. In addition, the “SEC elution of the complex, 75 mM NaCl” value in series [1] (50 mM Tris-HCl (pH 7.4), 75 mM NaCl) is on record as “the tetramer starts breaking down to dimer”. The “SEC elution of the complex, 150 mM NaCl” value in series [1] (50 mM Tris-HCl (pH 7.4), NaCl 150 mM) is “eluted mostly as a dimer and monomer”. Besides, the “SEC elution of the complex, high glycerol concentration” value in series [1] (Superdex 75, buffers containing glycerol) was “the tetramer breaks down to dimer and monomers”.
